Measured values taken from US20110091992A1 (AstraZeneca / MedImmune, published 2011).
Values belong to the molecule of their own block, whether it stands above or below them.

Legend:
[1] = target: Human CD16 (V158 allotype), soluble (human) (UniProt P08637); assay: SPR (BIAcore 3000), Fc amine-coupled to CM5 chip, soluble CD16 V158 at 1 nM-1.6 µM, steady-state isotherm fit, 25 C
Human FcγRIIB = target: T1, Human FcγRIIB (human, UniProt P31994 43-217, limits assumed); assay: SPR (BIAcore 3000), immobilised Fc/Mut3, human FcγRIIB injected at 8 µM
T1 construct: The construct is not described
T1 sequence (looked up): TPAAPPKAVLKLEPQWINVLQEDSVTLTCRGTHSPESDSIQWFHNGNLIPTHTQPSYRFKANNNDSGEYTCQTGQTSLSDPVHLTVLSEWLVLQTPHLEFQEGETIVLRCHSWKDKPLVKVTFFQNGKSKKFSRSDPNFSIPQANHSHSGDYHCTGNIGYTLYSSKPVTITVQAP

Human FcγRIIA [2] = target: T2, Human FcγRIIA (human, UniProt P12318 34-217, limits assumed); assay: SPR (BIAcore 3000), immobilised Fc/Mut3, human FcγRIIA injected at 8 µM
T2 construct: The construct is not described
T2 sequence (looked up): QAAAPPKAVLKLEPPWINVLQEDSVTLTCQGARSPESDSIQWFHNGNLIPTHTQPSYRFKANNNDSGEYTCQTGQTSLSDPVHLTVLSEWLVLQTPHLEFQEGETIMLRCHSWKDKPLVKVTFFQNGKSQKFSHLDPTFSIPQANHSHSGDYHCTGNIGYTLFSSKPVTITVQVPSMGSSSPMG

Human FcγRIIA [3] = target: T2, Human FcγRIIA; assay: SPR (BIAcore 3000), immobilised Fc/Mut2, human FcγRIIA injected at 8 µM

Human CD16 (V158 allotype), soluble (human), sequence (P08637 17-208 F176V): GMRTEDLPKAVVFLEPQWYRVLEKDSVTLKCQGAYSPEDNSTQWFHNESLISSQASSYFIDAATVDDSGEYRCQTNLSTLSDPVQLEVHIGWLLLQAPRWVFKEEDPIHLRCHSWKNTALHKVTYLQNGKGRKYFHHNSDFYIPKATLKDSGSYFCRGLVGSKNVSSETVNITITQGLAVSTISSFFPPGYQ

Kd [1]: 157 nM
Molecule: Unmutated human Fc (from UniProt P0DOX5 225-449)

binding result (Human FcγRIIB): no binding (tested: 8 µM)
binding result (Human FcγRIIA [2]): no binding (tested: 8 µM)
B1: Fc/Mut3 (other)
chain: THTCPPCPAPELLGGPSVFLFPPKPKDTLMISRTPEVTCVVVDVSHEDPEVKFNWYVDGVEVHNAKTKPRENSTVVSVLTVLHQDWLNGKEYKCKVSNKALPAPIEKTISKAKGQPREPQVYTLPPSREEMTKNQVSLTCLVKGFYPSDIAVEWESNGQPENNYKTTPPVLDSDGSFFLYSKLTVDKSRWQQGNVFSCSVMHEALHNHYTQKSLSLSPGK
notes: It was made in the same expression construct as the unmutated human Fc and expressed in HEK 293 cells

binding result (Human FcγRIIA [3]): no binding (tested: 8 µM)
B2: Fc/Mut2 (other)
chain: THTCPPCPAPELLGGPSVFLFPPKPKDTLMISRTPEVTCVVVDVSHEDPEVKFNWYVDGVEVHNAKTKPRENSTYRVVSVLTVLHQDWLNGKEYKCKVSNKALPAPIEKTISKAKGQPREPQVYTLPPSREEMTKNQVSLTCLVKGFYPSDIAVEWESNGQPENNYKTTPPVLDSDGSFFLYSKLTVDKSRWQQGNVFSCSVMHEALHNHYTQKSLSLSPGK
notes: as for B1
